According to patent EP4644419A1 (Hangzhou Zhongmeihuadong Pharmaceutical Co., Ltd., dated 2025):
Where a chain is given by its changes, count along the chain named. One block for each binder: values may come before it.

What was measured:
[1] = biological target: T1, human CD112R antigen protein huCD112R-His (Acro Biosysterm, PVG-H52H4) (human, UniProt Q6DKI7 41-171); assay: ELISA, huCD112R-His coated on plate
T1 construct: purchased; also called human antigen protein; not shown: His tag
T1 sequence (looked up): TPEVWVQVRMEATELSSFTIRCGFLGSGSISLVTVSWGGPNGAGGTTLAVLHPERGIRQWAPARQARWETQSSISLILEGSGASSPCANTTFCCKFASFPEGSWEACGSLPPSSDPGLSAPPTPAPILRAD

[2] = biological target: T2, monkey antigen protein (monkey CD112R, Uniprot ID: A0A2K5WVV8) (monkey, UniProt A0A2K5WVV8 41-171); assay: ELISA, monkey antigen protein (as Example 6.1)
T2 sequence: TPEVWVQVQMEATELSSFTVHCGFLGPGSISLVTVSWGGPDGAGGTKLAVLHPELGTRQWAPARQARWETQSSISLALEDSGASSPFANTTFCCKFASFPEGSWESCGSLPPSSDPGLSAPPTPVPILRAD

[3] = biological target: T1, human CD112R antigen protein …; assay: SPR (Biacore X100), antibody captured on Protein A chip, huCD112R-His as analyte, 1:1 Langmuir

EC50 [1]: 0.029 nM
EC50 [2]: 0.125 nM
B1: C22 (antibody, human IgG1, kappa, V domains shown)
VH: EVQLQQSGPEPVKPGASVKISCKASGYTFTDYNIHWVRQSHGKSLEWIGYIYPYNGGAGYNQKFKSKATLTVDSSSSTAYMELRSLTSEDSAVYYCAREELRRDYGMDYWGQGTSVTVSS
VL: DIQMTQSPASLSASVGETVTITCRASENIYSYLAWYQQKQGKSPQLLVYNAKTLAEGVPSRFSGSGSGTQFSLKINSLQPEDFGSYYCQHHYGTPYTFGGGTKLETKR

EC50 [1]: 0.049 nM
EC50 [2]: 0.079 nM
B2: C125 (antibody, human IgG1, kappa, V domains shown)
VH: EVKLVESGGGLVQPGGSLKLSCAASGFTFSSYTMSWVRQTPEKRLELVAELSNSGGSFHYPDNVKGRFTISRDNAKNTLYLQMSSLKSEDTAMYYCARHNWDVYAMDYWGQGTSVTVSS
VL: DIQMSQSPASLSASVGETVTITCRASENVNSYLAWYQQKQGRSPQFLVYNAQTLAEGVPSRFSGGGSGTQFSLKINSLQPEDFGSYYCQHHYGNPTFGGGTKLEIKR

EC50 [1]: 0.032 nM
EC50 [2]: 0.044 nM
B3: C56-2 (antibody, human IgG1, kappa, V domains shown)
VH: EVQLVESGGGLVKPGGSLKLSCAASGFTFSDYALSWVRQTPEKRLEWVATIRDGGSYTYYSDNEKGRFTISRDNAKNNLYLQMSHLRSEDTAMYYCTRDQVNRGWFTYWGQGTLVTVSA
VL: QVILTQSPAIMSASLGERVTMTCSASSSVSSSYFHWFQQKPGSSPKLWIYSTSNLASGVPPRFSGSGSGTSYSLTISSMEAEDAATYYCHQHHRSPLTFGAGTKLELKR

EC50 [1]: 0.044 nM
EC50 [2]: 0.049 nM
B4: C59 (antibody, human IgG1, kappa, V domains shown)
VH: B3 VH with D31G, R87K
VL: B3 VL

EC50 [1]: 0.038 nM
EC50 [2]: 0.042 nM
B5: C145 (antibody, human IgG1, kappa, V domains shown)
VH: EVQLQQSGPEVVKPGASVRISCKASGNTFTDFFINWVKQSHGKSLEWIGDVNPDSNGANYNQKFKGKATLTVDKSSGTAFMGLRSLTSEDSAVYYCATLFFDNWGQGTTLTVSS
VL: DIVMTQSPSSLNVSAGEKVTMSCKSSQSLLNSGNQKNYLAWYQQKPGQPPKLLIYGASTRESGVPDRFTGSGSGTDFILTISSVQAEDLALYYCQNAHSSPYTFGGGTKLEIKR

EC50 [1]: 0.029 nM
EC50 [2]: 0.034 nM
Kd [3]: 0.222 nM
B6: C115 (antibody, human IgG1, kappa, V domains shown)
VH: EVQLQQSGAELVKPGASVKLSCTASGFNIEDTYIHWVKRRPEQGLEWIGGIDPAIGNTLYASKFQDMATITADTSSSTAYMQLSSLTSGDTAVYYCARERVYSNTLYYAMDYWGQGTSVTVSS
VL: DIVLTQSPASLVVSLGQRATISCRASKSVSISGYSYMHWYQQKPGQPPKLLIYLASNLESGVPARFSGSGSGTDFTLNIHPVEAEDAATYYCQHSRELPPTFGGGTNLEIKR

EC50 [1]: 0.036 nM
EC50 [2]: 0.074 nM
B7: C146 (antibody, human IgG1, kappa, V domains shown)
VH: EVQLQQSGPELVKPGSSVKISCEASGYTFADYNVDWVKQSHGKSLEWIGAINPNDGGTSYNQKFEGKATLTVDKSSTTVYMELRSLTSEDSAVYYCARWVNNDWYFDVWGTGTTVTVSS
VL: DIVMTQSQKFMSTSVGDRVSITCKASQNVRSAVDWYQQKPGQSPKTLIHSASSRHTGVPDRFTGSGSGTDFTLTISNIQSEDLADYFCLQHWNYPYTFGGGTKLEVKR

EC50 [1]: 0.038 nM
EC50 [2]: 0.104 nM
B8: C113 (antibody, human IgG1, kappa, V domains shown)
VH: EVQLQQSGPELVKPGSSVKISCKASGYTFTDYNLDWMKQSHGSSLEWIGAMSPNNGATSYNQKFKGKATLTVDKSSSTAYMELRSLTSEDSAVYYCARWDSNSWYFDVWGTGTTVTVSS
VL: B7 VL with N28I, S31T, P40S, T46A, H49Y, S53T, S76D, I78V, D85E, V106I

EC50 [1]: 0.036 nM
EC50 [2]: 0.074 nM
B9: C111 (antibody, human IgG1, kappa, V domains shown)
VH: QVQLQQSGPELARPGASVKLSCKASGYTLTSHGISWVKQRTGQGLEWIGEIYPGSESPYYSEKFKGKATLTADKSSNIAYMQLSSLTSEDSAVYFCARSDYSDYWAMDYWGQGTSVTVSS
VL: B7 VL with F10C, D34A, H49Y, S50L, S53N, S76T, I78V, Y96W, K103E, V106I

EC50 [1]: 0.691 nM
EC50 [2]: 0.141 nM
B10: C39 (antibody, human IgG1, kappa, V domains shown)
VH: QAYLQQSGAELVRPGASVKMSCKASGYTFTSYNIHWVKQTPRQGLEWIGAIYPGNADISYNQKFRDKATLTVDKSSSTAYMQLSSLTSEDSAVYFCAKPLRIYAMDCWGQGTSVTVSS
VL: DIVMTQSQKFMSTSVGDRVSVTCKASQNVGTNVAWYQQKPGQSPKALIYSASYRYSGVPDRFTGSGSGTDFTLTISNVQSEDLADYFCQQYNSRPLTFGGGTKLEIKR

EC50 [1]: 0.066 nM
EC50 [2]: 0.068 nM
B11: C21 (antibody, human IgG1, kappa, V domains shown)
VH: EVQLQQSGAELVKPGASVKLSCTASGFNIKDIYMHWLKQRPEQGLEWIGRVDPTNGNSEYDPRFQGKATLTADTSSNIAYLQLSSLTSEDTAVYYCARFGIYPYFDYWGQGTTLTVSS
VL: SIVMTQTPKFLLVSAGDRVTITCKASQSVNKAVVWYQQKPGQSPKLLINYASNRYTGVPDRFTGSGYGTDFTFSISTVQAEDLAVYFCQQDYSSPWTFGGGTKLEIKR

EC50 [1]: 0.039 nM
EC50 [2]: 0.06 nM
B12: C136 (antibody, human IgG1, kappa, V domains shown)
VH: DVQLVESGGGLVKPGGSLKLSCAASGFSFSENYMYWVRQTPEKRLEWVATISDGASYTYYPDNVKGRFTISRDTAKNNLYLQMSHLKSEDTAMYYCTRDELIAPFAYWGQGTLVTVSA
VL: DIVMTQSHKFMSTSVGDRVSITCKASQDVGTAVAWFQQKPGQSPKLLIYWASTRHTGVPDRFTGSGSGTDFTLTISNVQSEDLADYFCQQYNSYPWTFGGGTKLEIKR

EC50 [1]: 0.219 nM
EC50 [2]: 0.101 nM
B13: C36 (antibody, human IgG1, kappa, V domains shown)
VH: QIQLVQSGPELKKPGETVKISCKASGYTFTTYGMSWVKQAPGKGLKWMGWINTYSGVPTYADDFKGRFAFSLETSASNAYLQINNLKNEDTATYFCARELPFTTIIGTKDYWGQGTTLTVSS
VL: DIVLIQSPATLSVTPGDSVSLSCRASQFISNNLHWYQQKSHESPRLLIKYASQSISGIPSRFSGGGSGTDFTLTVNSVETEDFGMYFCQQSNSWPHTFGGGTKLEIKR

EC50 [1]: 0.049 nM
EC50 [2]: 0.054 nM
B14: C28 (antibody, human IgG1, kappa, V domains shown)
VH: QIQLQQSGPELVKPGPSVKISCKASGYTFTDYYINWVKQRPGQGLEWIGWIYPGSGYTKYNEKLKGRATLTVDTSSSTAYMQLSSLTSEDSAVYFCARDSFYAMDYWGQGTSVTVSS
VL: DIVMTQSQKFMSTTVGDRVSITCKASQNVGTAVAWYQQKPGQSPKLLIYSASNRYTGVPDRFTGSGSGTDFTLTITNMQSEDLADYFCLQYSSYLTFGAGTKLELKR

EC50 [1]: 0.038 nM
EC50 [2]: 0.12 nM
B15: C31 (antibody, human IgG1, kappa, V domains shown)
VH: B14 VH with P16A, N35A, P53L, Y57H, K59M, K63N, L64F, R67K
VL: B14 VL with T76S, L89Q, S93T

EC50 [1]: 0.06 nM
EC50 [2]: 0.125 nM
B16: C23 (antibody, human IgG1, kappa, V domains shown)
VH: QVQLQQSGPELVKPGTSVKISCKASGYTFTDYYINWVKQRPGQGLEWIGWIFPGSGNTYYNEKFKGRATLTVDKSSSTAYMLLSSLTSEDSAVYFCARDGGLRGPFDYWGQGTTLTVSS
VL: DIQMTQSPSSLSASLGGKVTITCKASQDINKYIAWFQHKPGKGPRLLIHFTSTLQSGIPSRFSGSGSGGDYSFSISNLEPEDIATYYCLQYDYLYTFGGGTTLEIKR
